Sequences and labels used below:
B1: Tryptophan synthase alpha chain, P0A877 (parent)
chain: MERYESLFAQLKERKEGAFVPFVTLGDPGIEQSLKIIDTLIEAGADALELGIPFSDPLADGPTIQNATLRAFAAGVTPAQCFEMLALIRQKHPTIPIGLLMYANLVFNKGIDEFYAQCEKVGVDSVLVADVPVEESAPFRQAALRHNVAPIFICPPNADDDLLRQIASYGRGYTYLLSRAGVTGAENRAALPLNHLVAKLKEYNAAPPLQGFGISAPDQVKAAIDAGAAGAISGSAIVKIIEQHINEPEKMLAALKVFVQPMKAATRS

Variants of B1 are the subject of the data set. The note with it: Escherichia coli (strain K12), Thermal, DSC, structure 1WQ5, whole UniProt chain shown.
Setting [1] is: pH 7, 25 °C, potassium phosphate 1 mM, reversible: yes(<50%).
[2] abbreviates: pH 9.3, 25 °C, sodium tetraborate 1 mM, reversible: yes(>70%).
Setting [3] is: pH 9.3, sodium tetraborate 1 mM, reversible: yes(>70%).
Where [4] appears, read: pH 7, potassium phosphate 1 mM, reversible: yes(<50%).

One may read the Tm as the temperature at which the thermal transition is half complete.

For the variant E49Q, the “heat capacity change of unfolding” value runs as follows: under setting [1], 2.9 kcal/mol/K; under setting [2], 2.9 kcal/mol/K; under setting [3], 2.9 kcal/mol/K. Moreover, the unfolding free energy is, setting by setting: under setting [1], 7.4 kcal/mol; under setting [2], 8.4 kcal/mol. For the same variant, the melting temperature (Tm) under setting [3] is 62.4 °C.

With E49S, the “heat capacity change of unfolding” value reads like this: under setting [1], 2.9 kcal/mol/K; under setting [4], 2.9 kcal/mol/K; under setting [2], 2.9 kcal/mol/K; under setting [3], 2.9 kcal/mol/K. Besides, the unfolding free energy under setting [1] is 7.7 kcal/mol and the unfolding free energy under setting [2] came to 7.1 kcal/mol. Further, the Tm stood at 60.5 °C under setting [4] and 58.6 °C under setting [3].

Source of the values: FireProtDB (doi:10.1111/j.1399-3011.1982.tb00898.x).
